Test results from patent US8106020B2, “Calcium receptor activator” (Ajinomoto Co., Inc., priority 2005, dated 2012).
Starred links: 1 amine or outer side, 2 acyl side, 3 side chain; linkers in the order of their positions; H or OH if unused. Non-standard residues stand in square brackets, D forms with d. No end group written: not given here. Cys(S-allyl) = S-allylcysteine, C=CCSC[C@H](N[*:1])C(=O)[*:2]; Cys(S-Me) = S-methylcysteine, CSC[C@H](N[*:1])C(=O)[*:2]; γGlu = O=C(O)[C@H](CCC(=O)[*:2])N[*:1]; Tau = Taurine, O=S(=O)(CCN[*:1])[*:2]; Tle = CC(C)(C)[C@H](N)C(=O)O; Orn = NCCC[C@H](N)C(=O)O; Abu = CC[C@H](N)C(=O)O

Experiments:
human calcium receptor = molecular target: T1, human calcium receptor (Homo sapiens, UniProt P41180); assay: Calcium receptor activation activity: Ca ion concentration-dependent Cl ionic current in Xenopus laevis oocyte expression system; assay type: cell-based; details: for Activity (lowest concentration for which current was detected): Ca ion concentration-dependent Cl response current, peptides added at 1000 to 0.1 μM, oocytes voltage-clamped at −70 mV
T1 construct: expressed in transfected cells; host or cells: Xenopus laevis oocytes microinjected with cRNA; gene amplified by PCR from human kidney cDNA (Clontech) and cloned in pBR322
T1 sequence (P41180 20-1078): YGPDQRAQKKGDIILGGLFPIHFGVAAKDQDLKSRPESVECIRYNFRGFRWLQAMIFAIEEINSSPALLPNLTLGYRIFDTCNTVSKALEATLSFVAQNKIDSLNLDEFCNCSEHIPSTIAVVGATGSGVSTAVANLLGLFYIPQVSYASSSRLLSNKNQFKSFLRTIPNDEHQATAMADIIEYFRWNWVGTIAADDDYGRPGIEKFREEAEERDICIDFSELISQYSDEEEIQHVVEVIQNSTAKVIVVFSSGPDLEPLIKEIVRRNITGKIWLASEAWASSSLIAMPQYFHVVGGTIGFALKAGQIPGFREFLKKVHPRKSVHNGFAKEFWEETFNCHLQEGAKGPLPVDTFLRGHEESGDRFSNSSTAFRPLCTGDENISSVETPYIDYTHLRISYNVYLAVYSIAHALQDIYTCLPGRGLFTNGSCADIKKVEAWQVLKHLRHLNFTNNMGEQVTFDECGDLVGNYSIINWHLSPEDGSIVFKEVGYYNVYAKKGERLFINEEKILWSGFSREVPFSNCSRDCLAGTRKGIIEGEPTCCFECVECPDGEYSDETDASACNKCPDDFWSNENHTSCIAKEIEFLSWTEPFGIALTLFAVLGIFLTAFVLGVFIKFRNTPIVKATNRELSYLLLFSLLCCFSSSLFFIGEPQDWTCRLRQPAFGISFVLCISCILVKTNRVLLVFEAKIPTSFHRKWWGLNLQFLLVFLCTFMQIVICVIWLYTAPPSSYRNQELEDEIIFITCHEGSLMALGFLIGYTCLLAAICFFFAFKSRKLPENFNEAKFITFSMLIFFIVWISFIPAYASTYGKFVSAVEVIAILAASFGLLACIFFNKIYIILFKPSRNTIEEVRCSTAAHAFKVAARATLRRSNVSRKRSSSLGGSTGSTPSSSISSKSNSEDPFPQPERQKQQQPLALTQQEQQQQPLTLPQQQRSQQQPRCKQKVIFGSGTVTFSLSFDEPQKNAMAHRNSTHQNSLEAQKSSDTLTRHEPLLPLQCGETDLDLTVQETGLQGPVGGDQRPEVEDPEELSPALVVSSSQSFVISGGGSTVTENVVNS
Experimental: To evaluate calcium receptor activation activity, a Ca ion concentration-dependent Cl ionic current measuring method using a Xenopus laevis oocyte expression system was used. If each activator is added to Xenopus laevis oocytes expressing the calcium receptor, intracellular Ca ions increase. Then, the Ca ion concentration-dependent Cl channel opens, and the intracellular current value changes as an ionic current. By measuring the change in this intracellular current value, the presence or absence of calcium receptor activation activity can be determined.
Specifically, the abdomen of Xenopus laevis was opened, and an egg batch was taken out and treated with a 1% collagenase solution at 20° C. for 2 hours to obtain individual oocytes. Into the oocytes, 50 nl of 1 μg/μl receptor cRNA or 50 nl of sterilized water per oocyte was introduced by using a micro glass capillary, and the oocytes were cultured at 18° C. for 2 or 3 days. For the culture, a solution obtained by adding 2 mM pyruvic acid, 10 U/ml of penicillin, and 10 μg/ml of streptomycin to the solution in Example 2 was used. After the culture, a test solution was added to the oocytes containing either the cRNA or sterilized water. Electrophysiological measurement was performed by using an amplifier, Geneclamp500 (Axon), and recording software, AxoScope 9.0 (Axon). The oocytes were voltage-clamped at −70 mV by the double electrode voltage clamp method, and the intracellular current was measured via the Ca ion concentration-dependent Cl ion channel. The maximum value of the intracellular current was considered as the response current value.
Calcium receptor activation activity of L-amino acids was evaluated by using the method described in Example 6. That is, oocytes containing either cRNA of the calcium receptor or sterilized water were prepared, and voltage-clamped at −70 mV by the double electrode voltage clamp method. To the voltage-clamped oocytes, alanine (10 mM), arginine (10 mM), asparagine (10 mM), aspartic acid (10 mM), cysteine (10 mM), glutamine (10 mM), glutamic acid (10 mM), glycine (10 mM), histidine (10 mM), isoleucine (10 mM), leucine (10 mM), lysine (10 mM), methionine (10 mM), phenylalanine (10 mM), proline (10 mM), serine (10 mM), threonine (10 mM), tryptophan (10 mM), tyrosine (10 mM), valine (10 mM), ornithine (10 mM), taurine (10 mM), or hydroxyproline (10 mM) was added, and Ca ion concentration-dependent Cl response current was measured. […] As for the aforementioned amino acids, the activation activity was reported in Proc. Natl. Acad. Sci. USA, 2000 Apr. 25, 97(9):4814-9.
Calcium receptor activation activity of D-cysteine was evaluated by using the method described in Example 6. That is, oocytes containing either cRNA of the calcium receptor or sterilized water were prepared, and voltage-clamped at −70 mV by the double electrode voltage clamp method. To the voltage-clamped oocytes, D-cysteine (10 mM), L-cysteine (10 mM), D-tryptophan (10 mM), or L-tryptophan (10 mM) was added, and Ca ion concentration-dependent Cl response current was measured.
Calcium receptor activation activity of peptides was evaluated by using the method described in Example 6. That is, oocytes containing either cRNA of the calcium receptor or sterilized water were prepared, and voltage-clamped at −70 mV by the double electrode voltage clamp method.
Calcium receptor activation activity of peptides was evaluated in the same manner as that of Example 10. Each of the peptides shown in Table 2 was added to voltage-clamped oocytes at 1000 μM, 300 μM, 100 μM, 30 μM, 10 μM, 3 μM, 1 μM, 0.3 μM, and 0.1 μM, and Ca ion concentration-dependent Cl response current was measured.

[1] = system: Parathyroid hormone (PTH); assay: Pharmacological evaluation in rats: serum PTH after intravenous injection; assay type: in vivo, rat; details: male Sprague-Dawley rats, 100 mg/ml in saline, 0.1 ml/100 g body weight, tail vein
Text: The pharmacological effects of the peptides were confirmed by animal study. Parathyroid hormone (PTH) is one of the major proteins which relate to calcium homeostasis. Increase in PTH is directly responsible for hyperparathyroidism and hypoparathyroidism. It is known that PTH is secreted from the parathyroid gland, and its secretion is inhibited when the calcium receptor is activated. Male, 10 weeks old, Sprague-Dawley strain rats were used. “Rat Intact PTH ELISA KIT” (Immutopics) was used for measuring PTH according to the manufacturer's recommended protocol. 100 mg/ml of γ-Glu-Val-Gly was dissolved in physiological saline, and 0.1 ml/100 g body weight for each was injected through the tail vein. Blood was collected from the vein under the right clavicle, and blood serum was obtained by centrifugation. Each group consists of 3 rats, and PTH variation is shown below as average value±standard error. The result for the peptide-administered group was: 148±72.5 pg/ml before the administration and 9.44±2.94 pg/ml 15 minutes after the administration; meanwhile, the result for the control group (physiological saline administered group) was: 89.4±49.5 pg/ml before the administration and 41.1±11.6 pg/ml 15 minutes after the administration. As a result, PTH levels decreased as a result of the administration of the peptides.

With N[C@H](CS)C(=O)O [D-cysteine] the “calcium receptor activation activity (Cl response current)” value (from here on “calcium receptor activation activity”) (human calcium receptor; D-amino acid 10 mM, FIG. 3) was “definitive calcium receptor activation activity”.
In the case of N[C@@H](CS)C(=O)O [cysteine, reference compound], the “calcium receptor activation activity” value (human calcium receptor; L-amino acid 10 mM, FIG. 2) is reported as “definite calcium receptor activation activity”.
For N[C@@H](Cc1c[nH]cn1)C(=O)O [histidine, reference compound], the “calcium receptor activation activity” value (human calcium receptor; L-amino acid 10 mM, FIG. 2) was “definite calcium receptor activation activity”.
For N[C@@H](Cc1ccccc1)C(=O)O [phenylalanine, reference compound], the “calcium receptor activation activity” value (human calcium receptor; L-amino acid 10 mM, FIG. 2) was “definite calcium receptor activation activity”.
N[C@@H](Cc1c[nH]c2ccccc12)C(=O)O [tryptophan, reference compound] was tested, and the “calcium receptor activation activity” value (human calcium receptor; L-amino acid 10 mM, FIG. 2) was “definite calcium receptor activation activity”.
N[C@@H](Cc1ccc(O)cc1)C(=O)O [tyrosine, reference compound] was tested, and the “calcium receptor activation activity” value (human calcium receptor; L-amino acid 10 mM, FIG. 2) was “definite calcium receptor activation activity”.
In the case of N[C@@H](CCC(=O)N[C@@H](CSN=O)C(=O)NCC(=O)O)C(=O)O [γ-Glu-Cys(SNO)-Gly], the “calcium receptor activation activity” value (human calcium receptor; peptide 50 μM, FIG. 4) is reported as “definitive calcium receptor activation activity”.
N[C@@H](CCC(=O)N[C@@H](CS)C(=O)NCC(=O)O)C(=O)O [γ-Glu-Cys-Gly] was tested, and the “calcium receptor activation activity” value (human calcium receptor; peptide 50 μM, FIG. 4) was “definitive calcium receptor activation activity”.
With γ-Glu-Abu-Gly ([γGlu]-[Abu]-Gly) the “Activity (lowest concentration for which current was detected)” value (human calcium receptor) was 3 µM.
In the case of “γ-Glu-Cys(S-Me)-Gly ([γGlu]-[Cys(S-Me)]-Gly)”, the “Activity (lowest concentration for which current was detected)” value (human calcium receptor) is reported as 3 µM.
For “γ-Glu-Cys(S-allyl)-Gly ([γGlu]-[Cys(S-allyl)]-Gly)”, the “Activity (lowest concentration for which current was detected)” value (human calcium receptor) was 100 µM.
With γ-Glu-Gly-Gly ([γGlu]-Gly-Gly) the “Activity (lowest concentration for which current was detected)” value (human calcium receptor) was 30 µM.
With γ-Glu-Orn ([γGlu]-[Orn]) the “calcium receptor activation activity” value (human calcium receptor; peptide 500 μM, FIG. 4) was “definitive calcium receptor activation activity”.
γ-Glu-Ser-Gly ([γGlu]-Ser-Gly) was tested, and the “Activity (lowest concentration for which current was detected)” value (human calcium receptor) was 30 µM.
With γ-Glu-Tau ([γGlu]-[Tau]) the “Activity (lowest concentration for which current was detected)” value (human calcium receptor) was 300 µM.
With γ-Glu-Val-Arg ([γGlu]-Val-Arg) the “Activity (lowest concentration for which current was detected)” value (human calcium receptor) was 1000 µM.
With γ-Glu-Val-Asn ([γGlu]-Val-Asn) the “Activity (lowest concentration for which current was detected)” value (human calcium receptor) was 30 µM.
γ-Glu-Val-Asp was tested, and the “Activity (lowest concentration for which current was detected)” value (human calcium receptor) was 1000 µM.
In the case of γ-Glu-Val-Cys ([γGlu]-Val-Cys), the “Activity (lowest concentration for which current was detected)” value (human calcium receptor) is reported as 10 µM.
For γ-Glu-Val-Gln ([γGlu]-Val-Gln), the “Activity (lowest concentration for which current was detected)” value (human calcium receptor) was 10 µM.
For γ-Glu-Val-Glu ([γGlu]-Val-Glu), the “Activity (lowest concentration for which current was detected)” value (human calcium receptor) was 1000 µM.
In the case of γ-Glu-Val-Gly ([γGlu]-Val-Gly), the “Activity (lowest concentration for which current was detected)” value (human calcium receptor) is reported as 0.1 µM, the “PTH in blood serum, average value±standard error” value ([1]; 15 minutes after the administration) is reported as 9.44 ± 2.94 pg/mL and the “PTH in blood serum, average value±standard error” value ([1]; before the administration) is reported as 148 ± 72.5 pg/mL.
γ-Glu-Val-His ([γGlu]-Val-His) was tested, and the “Activity (lowest concentration for which current was detected)” value (human calcium receptor) was 100 µM.
For γ-Glu-Val-Lys ([γGlu]-Val-Lys), the “Activity (lowest concentration for which current was detected)” value (human calcium receptor) was 1000 µM.
In the case of γ-Glu-Val-Met ([γGlu]-Val-Met), the “Activity (lowest concentration for which current was detected)” value (human calcium receptor) is reported as 1000 µM.
γ-Glu-Val-Orn ([γGlu]-Val-[Orn]) was tested, and the “Activity (lowest concentration for which current was detected)” value (human calcium receptor) was 100 µM.
γ-Glu-Val-Phe ([γGlu]-Val-Phe) was tested, and the “Activity (lowest concentration for which current was detected)” value (human calcium receptor) was 30 µM.
In the case of γ-Glu-Val-Pro ([γGlu]-Val-Pro), the “Activity (lowest concentration for which current was detected)” value (human calcium receptor) is reported as 30 µM.
In the case of γ-Glu-Val-Ser ([γGlu]-Val-Ser), the “Activity (lowest concentration for which current was detected)” value (human calcium receptor) is reported as 30 µM.
In the case of γ-Glu-Val-Thr ([γGlu]-Val-Thr), the “Activity (lowest concentration for which current was detected)” value (human calcium receptor) is reported as 1000 µM.
γ-Glu-Val-Val ([γGlu]-Val-Val) was tested, and the “Activity (lowest concentration for which current was detected)” value (human calcium receptor) was 1000 µM.
In the case of γ-Glu-t-Leu ([γGlu]-[Tle]), the “Activity (lowest concentration for which current was detected)” value (human calcium receptor) is reported as 100 µM.
With γ-Glu-γ-Glu-Val ([γGlu]-[γGlu]-Val) the “Activity (lowest concentration for which current was detected)” value (human calcium receptor) was 1000 µM.
